Laboratory results as given in US20250263490A1 (VIB VZW, published 2025).

Legend:
[1] = biological target: recombinant human domain 1-3His6 of the cation-independent mannose-6-phosphate receptor (human) (UniProt P11717); test: BLI exp 1, dissoc pH 7, bivalent model
[2] = biological target: recombinant human domain 1-3His6 of the cation-independent mannose-6-phosphate receptor (human) (UniProt P11717); test: BLI exp 1, dissoc pH 5, bivalent model
[3] = biological target: recombinant human domain 1-3His6 of the cation-independent mannose-6-phosphate receptor (human) (UniProt P11717); test: BLI exp 2, dissoc pH 5, bivalent model
[4] = biological target: human cation-independent mannose-6-phosphate receptor, native, on cells (human) (UniProt P11717); test: flow cytometry on HepG2 cells, titration of the anti-CI-M6PR 2G11 antibody (Abcam ab2733) [lower graph]
[5] = biological target: recombinant human domain 1-3His6 of the cation-independent mannose-6-phosphate receptor (human) (UniProt P11717); test: BLI exp 1, dissoc pH 7.4, bivalent model
[6] = biological target: human cation-independent mannose-6-phosphate receptor, native, on cells (human) (UniProt P11717); test: flow cytometry on HEK293T cells (sheet: HEK293 cell), titration of the anti-CI-M6PR 2G11 antibody (Abcam ab2733) [lower graph]
[7] = biological target: recombinant human domain 1-3His6 of the cation-independent mannose-6-phosphate receptor (human) (UniProt P11717); test: BLI exp 2, dissoc pH 6, bivalent model
[8] = biological target: recombinant human domain 1-3His6 of the cation-independent mannose-6-phosphate receptor (human) (UniProt P11717); test: BLI exp 2, dissoc pH 7, bivalent model
[9] = biological target: recombinant human domain 1-3His6 of the cation-independent mannose-6-phosphate receptor (human) (UniProt P11717); test: BLI exp 1, dissoc pH 6, bivalent model
[10] = biological target: recombinant human domain 1-3His6 of the cation-independent mannose-6-phosphate receptor (human) (UniProt P11717); test: BLI at pH 7.4, bivalent model
[11] = biological target: recombinant human domain 1-3His6 of the cation-independent mannose-6-phosphate receptor (human) (UniProt P11717); test: BLI exp 2, dissoc pH 7.4, bivalent model
[12] = biological target: T1, recombinant human domain 1-3His6 of the cation-independent mannose-6-phosphate receptor (human, UniProt P11717 41-467); test: in-tandem competitive BLI, biotinylated hDom1-3His6 on SA sensors, periplasmic extract of E. coli (concentration not given)
T1 construct: Biotinylated (NHS-PEG4-biotin) for BLI; Glycosylated; also called hDom1-3His6; hCI-M6PRD1-D3
Experimental: FIGS. 50 & 51. […] In-tandem competitive BLI was performed on an Octet Red96 (FortéBio) instrument in kinetics buffer (1×PBS, 1 mg/ml bovine serum albumin, 0.02% Tween-20 and 0.05% sodium azide). Human CI-M6PR domain₁₋₃His₆ (0.5 mg/mL in 50 mM MES, 150 mM NaCl, pH 6.5) was incubated for 30 minutes at room temperature with EZ-Link™ NHS-PEG4-Biotin (1 mg, Thermo Fischer A39259) and NaHCO₃ (100 mM). Biotinylated human domain₁₋₃His₆ was purified using a Zeba spin desalting Column™ (7K MWCO, 2 mL, Thermo Fischer 89890) and immobilized on Streptavidin SA biosensors (Sartorius) to a signal of 0.5 nm. […] Between assays, biosensors were regenerated by three times 10 s exposure to regeneration buffer (10 mM glycine pH 3). Data were double reference-subtracted and aligned in Octet Data Analysis software v9.0 (FortéBio). Greyscale curves represent double reference-subtracted data.

[13] = biological target: T1, recombinant human domain 1-3His6 of the …; test: in-tandem competitive BLI, biotinylated hDom1-3His6 on SA sensors, purified VHH at 400 nM
Experimental: (§1) FIGS. 50 & 51. In-tandem competitive BLI of purified anti-CI-M6PR VHHs. In-tandem competitive BLI was performed on an Octet Red96 (FortéBio) instrument in kinetics buffer (1×PBS, 1 mg/ml bovine serum albumin, 0.02% Tween-20 and 0.05% sodium azide). Human CI-M6PR domain₁₋₃His₆ (0.5 mg/mL in 50 mM MES, 150 mM NaCl, pH 6.5) was incubated for 30 minutes at room temperature with EZ-Link™ NHS-PEG4-Biotin (1 mg, Thermo Fischer A39259) and NaHCO₃ (100 mM). Biotinylated human domain₁₋₃His₆ was purified using a Zeba spin desalting Column™ (7K MWCO, 2 mL, Thermo Fischer 89890) and immobilized on Streptavidin SA biosensors (Sartorius) to a signal of 0.5 nm. […] Between assays, biosensors were regenerated by three times 10 s exposure to regeneration buffer (10 mM glycine pH 3). Data were double reference-subtracted and aligned in Octet Data Analysis software v9.0 (FortéBio). Greyscale curves represent double reference-subtracted data.

[14] = biological target: T1, recombinant human domain 1-3His6 of the …; test: in-tandem competitive BLI, biotinylated hDom1-3His6 on SA sensors, purified VHH
[15] = biological target: T1, recombinant human domain 1-3His6 of the …; test: BLI, dissoc pH 5.5, mean of local fits
Experimental: (§2) FIGS. 58 & 59. […] BLI was performed on an Octet Red96 (FortéBio) instrument in kinetics buffer (0.2 M Na₂HPO₄, 0.1 M Na⁺ citrate, 0.01% bovine serum albumin, 0.002% Tween-20). Biotinylated human domain₁₋₃His₆ was immobilized on Streptavidin SA biosensors (Sartorius) to a signal of 0.6 nm. […] Between assays, biosensors were regenerated by three times 10 s exposure to regeneration buffer (10 mM glycine pH 3). The degree of association and dissociation was measured in δ nm over time (s).
(§3) After loading, the tips were incubated with VHHs serially diluted in pH 7.4 kinetic buffer during the association phase and dissociation was performed at pH 7.4, pH 6.5, pH 6.0, pH 5.5 and pH 5.0. All biosensor tips were then regenerated before analysis of the subsequent VHH. Table 13 summarizes the kinetic parameters retrieved after processing and curve fitting of the BLI measurements. When both association and dissociation were performed at pH 7.4, a global fit was performed according to the 1:1 binding model of which the resulting affinity constants (KD), association (kₒₙ) and dissociation rate constants (koff) are shown. For measurements with association at pH 7.4 and dissociation at pH 6.5, 6.0, 5.5 and 5.0, the depicted dissociation rate constants are an average of the parameters determined by local curve fitting of the dissociation of 200, 100 and 50 nM VHH.

[16] = biological target: T1, recombinant human domain 1-3His6 of the …; test: BLI, global 1:1 fit, pH 7.4
Experimental: as §2, §3

[17] = biological target: T1, recombinant human domain 1-3His6 of the …; test: BLI, dissoc pH 5, mean of local fits
Experimental: as §2, §3

[18] = biological target: T1, recombinant human domain 1-3His6 of the …; test: BLI, dissoc pH 6.5, mean of local fits
Experimental: as §2, §3

[19] = biological target: T1, recombinant human domain 1-3His6 of the …; test: BLI, dissoc pH 6, mean of local fits
Experimental: as §2, §3

[20] = biological target: T1, recombinant human domain 1-3His6 of the …; test: in-tandem competitive BLI, 400 nM
Experimental: as §1
FIG. 55. […] In-tandem competitive BLI was performed as described in FIG. 50.

## anti-CI-M6PR antibody (clone 2G11)
[1]
  Kd: 4430 nM
  koff: 0.000712 s⁻¹
  kon: 161 M⁻¹ s⁻¹
[2]
  Kd: 1510 nM
  koff: 0.000363 s⁻¹
  kon: 241 M⁻¹ s⁻¹
[3]
  koff: 0.000389 s⁻¹
  kon: 35900 M⁻¹ s⁻¹
[4]
  EC50 (read off the curve): 0.6 nM
[5]
  Kd: 2760 nM
  koff: 0.000592 s⁻¹
  kon: 215 M⁻¹ s⁻¹
[6]
  EC50 (read off the curve): 0.2 nM
[7]
  koff: 0.000534 s⁻¹
  kon: 42600 M⁻¹ s⁻¹
[8]
  koff: 0.00103 s⁻¹
  kon: 31100 M⁻¹ s⁻¹
[9]
  Kd: 2350 nM
  koff: 0.000479 s⁻¹
  kon: 204 M⁻¹ s⁻¹
[10]
  Kd: 2760 nM
  koff: 0.000592 s⁻¹
  kon: 215 M⁻¹ s⁻¹
[11]
  Kd: 13.1 nM
  koff: 0.000794 s⁻¹
  kon: 60700 M⁻¹ s⁻¹

B1: anti-CI-M6PR VHH 2H79 (VHH)
VHH: QVQLQESGGGQVQAGDSLGLSCAASGGAFSTYHMGWFRQAPGKQRELVAAITRGGSSSTKYVDSVKGRFTISRDNAKNTMYLQMNSLQPDDTAVYYCAASPQGKWNALVGGTPDYWGQGTQVTVSS
[12]
  binding result: binds

B2: anti-CI-M6PR VHH 1H37 (VHH)
VHH: QVQLQESGGGLVQPGGSLRLTCAPSGRTYSTYWMAWFRQAPGKEREIVARINWSDGSTFYTESVKGRFTISGDNAKNTVYLQMTNLKPEDTAVYYCLARTVVSLDDYWGQGTQVTVSS
[13]
  binding result: binds

B3: anti-CI-M6PR VHH 2H74 (VHH)
VHH: QVQLQESGGGLVQAGGSLRLTCAPSGRTYSTYWMAWFRQAPGKEREIVARINWSDGSTFYTESVKGRFTISGDNAKNTVYLQMTNLKPEDTAVYYCLARTVVSLDDYWGQGTQVTVSS
[12]
  binding result: binds

B4: 1H74 (VHH)
VHH: QVQLQESGGGLVQPGGSLRLACAASGFTLEDYSIGWFRQAPGKEREGVSCISSSDHSTYYADSVKGRFTISRDNAQNTVYLHMNSLKPEDTAVYYCAGRYSSLARIETNWHDYNYWGQGTQVTVSS
notes: also called anti-CI-M6PR VHH 1H74
[14]
  binding result: no binding (tested: 400 nM)

B5: anti-CI-M6PR VHH 1H52 (VHH)
VHH: QVQLQESGGGLVQPGGSLRLSCTASGFTWDSYVIGWFRQAPGKGREGVSCLDVDDGSIYYHDSAKGRFSISRDNAKNTVYLQMNSLKPEDTAVYYCAAVNRASMRFRRCLQVLRYDYWGQGTQVTVSS
notes: made in E. coli WK6, His-tag purified
[15]
  koff: 0.051 s⁻¹
[16]
  Kd: 31 nM
  koff: 0.032 s⁻¹
  kon: 1e+06 M⁻¹ s⁻¹
[17]
  koff: 0.2 s⁻¹
[18]
  koff: 0.067 s⁻¹
[19]
  koff: 0.03 s⁻¹

B6: humanized VHH8 variant VHH8 h4 (VHH)
VHH: DVQLVESGGGLVQPGGSLRLSCEASGRTFNTYNWGWFRQAPGKEREFVAAIRWSSSKTSYADSVKGRFTISRDNSKNTVYLQMNSLRPEDTAVYYCAASIVDFTTNPSHFGSWGQGTLVTVSS
notes: made in E. coli
[20]
  binding result: binds

B7: humanized VHH8 variant VHH8 h5 (VHH)
VHH: DVQLVESGGGLVQAGGSLRLSCEASGRTFNTYNWGWFRQAPGKEREFVAAIRWSSSKTSYADSVKGRFTISRDNSKNTVYLQMNSLRPEDTAVYYCAASIVDFTTNPSHFGSWGQGTLVTVSS
notes: made in E. coli
[20]
  binding result: binds

B8: anti-CI-M6PR VHH 1H21 (VHH)
VHH: QVQLQESGGGLVQAGGSLRLSCVASGRTFSTLHMGWFHQAPGKERELVAAITRSGDTYYADFVKGRFTISRDNAKNTVYLQMISLKPEDTAVYYCAATGPGGWARLRAHEYDYWGQGTQVTVSS
[13]
  binding result: binds
